A short description of this series: yeast display, Sf9 membrane polyspecificity reagent, FACS + sequencing; frameworks hold sequencing errors. The method, boiled down:
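Synthetic nanobody libraries on Saccharomyces cerevisiae BJ5465 were galactose-induced for 36–48 hours, stained 1 hour at 4 °C with 10% biotinylated, detergent-solubilized Sf9 membrane reagent and enriched on streptavidin microbeads. FACS then separated cells into low and high (top ~1%) gates by anti-HA (expression) and streptavidin (reagent binding) fluorescence. Genes were colony-PCR amplified, MiSeq 2 × 250 sequenced and CDR-length filtered. A clone's polyreactivity label is that of its gate of origin.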
For the sequence “QVQLVESGGGLVQAGGSLRLSCAASGRTYWPNALGWSRQARGKERELVAAISWRGGSTSYADSVKGRFTISRDNAKNTVYLQMNRLKPEDTAVYYCAATSIRRNSKVLISGRLYDYWGQGTQVTVSS”, the “polyreactivity (PSR sort gate)” value is given as “high polyreactivity”.
The result for “QVQLVESGGGLVQAGGSLRLSCAASGSTFASNAMGWYRQAPGKERELVAAITSRDASTYYADSVKGRFTISRDKEKNTVYLQMNSLKPEDTAVYYCAPVGYSPAAFDYWGQGTQVTVSS” reads “low polyreactivity”.
The result for “QVQLLESRGGLVQAGGSLRLSCAASGRTIYTYAMGWYRQAPRTVRELVAAITYRGGNTYYADSVKGRFTISRDNAKYTVYLQMNSLKAEDTAVYDCIRRVAYLSGYSYDYWGQGTQVTVSS” reads “high polyreactivity”; that for “QVQLVESGGGLVQAGGSLRLSCAASGSTFTWNTMGWYRQAPGKEREMVAAISMRGANTYADSVKGRFTISLDNAKNTVYLEMNSLKPEDTAVYYCARDRLAIMDYNEYITRYEYWGQGTQVTVSS”, “low polyreactivity”; that for “QVQLGESVGGLVQAGGSLRLSCAASGRIFEPYAMGWYRQAPGKESELVAAINSGGSTNYADSVKGRFTISRDNAKNTVYLQMNSLKPEDTAVYYCNKGQNIRQSPGDYWGLGTQVTVSS”, “low polyreactivity”.
For “QVQLVESGGGLVQAGGSLRLSCAASGSTFPGNAMGWYRQAPGKERELVASISGGGDSTYYADSVKGRFTISRDNAKNTVYLQMISLKPEDTAVYYCAVDIDSNSGTRDYWGQGTQVTVSS”, the “polyreactivity (PSR sort gate)” value was “low polyreactivity”.
On to “QVQLVESGGGLVQAGGSLRLSCAASGSIFRYYAMGLYRQAPGKERVLVAAFSGSGGITLYADSVKVRFSISRDNAKNTVYLQMNCLKPEDTAVYFCATRPGTRPAYDYWGQGTQVTVSS”, for which the “polyreactivity (PSR sort gate)” value was “high polyreactivity”.
The result for “QVQLVESGGGLVQAGGSLRLSCAASGSIFSYYALGWYRQAPGKERELVAAISYSGGTTYYADSVKGRFTISRDNAKNTVYLQMNSLKPEDTAVYYCAAQWWWNRPVRYEYWGQGTQVTVSS” reads “low polyreactivity”; that for “QVQLVESGGGLVQAGGSLRLTCAASGFIFSRYTMGWYRQAPGKERELVAAISRRGGNTYYADSVKGRFTISRDNAKNTVYLQMNSLKPEDTAVYYCAADYAWPLRVTGDYWGQGTQVTVSS”, “low polyreactivity”.
As for “QVHLVESGGCLVQAGGSLRLSCSASGSIFGWYAMGWYRQAPGKEREFVAAISYSGGSTYYADSVKGRFTNSRDIAKITVYLQINSLKPEDTAVYYCNARPYWYFPYRVPEGYDYWGQGTQVTVSS”, the “polyreactivity (PSR sort gate)” value is “high polyreactivity”.
The result for “QVQLVESGGGLVQAGGSLRLSCAASGSIFRAYAMGWYRQAPGKEGELVATITSGGRTNYADSVKGRFTISRDNAKNTVYLQMNSLKPEDTAVYYCNADHWLYYGAGYDYWGQGTQVTVSS” reads “low polyreactivity”; that for “QVQLVESGGGLVQAGGSLRLSCAASGSIFGNNAMGWYRQAPGKERELVATISYSGDSTYYADSVKGRFTISRDNAKNTVYLQMNSLKPEDTAVYYCAKQSDWVYKDRAYDYWGQGTQVTVSS”, “low polyreactivity”.
“QVQLVESGGGLVQAGGSLRLSCAASGRIFIANTMGWYRQAPGKERELVAAITQRGDSTYYADSVKGRFTISRDNAKNTVYLQMNSLKPVDTAVYYCAARSFRKYYIRYDYWGQGTQVTVSS”: the “polyreactivity (PSR sort gate)” value is reported as “high polyreactivity”.
Regarding “QVQLVESGGGLVQAGGSLRLSCAASGSIFTYYAMGWYRQAPGKERELVAAISRRGGSTYYAVSVKGRFTISRDNAKNTVYLQMNSLKPEDTAVYYCNKVAYPRYYTGVNEFDYWGQGTQVTVSS”, the “polyreactivity (PSR sort gate)” value is recorded as “high polyreactivity”.
On to “QVQLVESGGGLVQAGGSLRLSCAASGRTFTPYTRGWYRQAPGKEREFVPAIRTGGNTYYADSVKGRFTISRDNAKNTVYLQMNSLKPEDTAVYYCAARDRIGYRLYYWGQGTQVTVSS”, for which the “polyreactivity (PSR sort gate)” value is “high polyreactivity”.
For the sequence “QVQLVVSGGGLVQAGGSLRLSCAASGRTFYANAMGWYRQAPGKERELVAAISTGGDGTYYADSVKGRFTISRDNAKNTVYLQMNSLKPEDTADYYCAVRHRASGILYDYWGQGTQVTVSS”, the “polyreactivity (PSR sort gate)” value is given as “low polyreactivity”.
The result for “QVQLVESGGGLVQAGGSLRLSCAASGFTFAVYVMGWSRQAPGKERELVATISFSVGSTYYADSVKRRFTISRDNAKNTVYLQMNSLKPEDTAVYYCNADPPPEYYPDKDNYWGQGTQVTVSS” reads “low polyreactivity”.
“QVQLVESGGGLVQAGGSLSLSCAASGFIFYGYAMGWYRQAPGKEREIVAAISGRGDRTYYADSVKGRFTISRDNAKNTVYLQMNSLNPEDTAVYYCAALQLRYSGALWYDYWGQGTQVTVSS”: the “polyreactivity (PSR sort gate)” value was “high polyreactivity”.
Consider “QVQLVESGGGLVQAGGSLRLSCAASGFIFTIYAMGWYRQAPGKERELVAAITWNGGRTYYADSVKGRFTISRDNAKNTVYLQMNSLKAEDTAVYYCAARYGRAYDYWGQGTQVTVSS”, for which the “polyreactivity (PSR sort gate)” value was “high polyreactivity”.
The result for “QVQLVESGGGLGQAGGSLRLSCAASGNTFYWNAMGWYRQAPGKERELVAAISTTGVSSYYADSVKGRFTISRDNAKNSVYLQMNSLKPEDTAVYYCAGEIIGYHTIYDYWGQGTQVTVSS” reads “low polyreactivity”; that for “QVQLVESGGGLVQAGGSLRLSCAASGRISVFNAMGWYRHAPGKERELVAAITSGGSTNYADSVKGRFTISRDNAKNTVYLQMNSLKPEDTAVYYCNADVYHSHEPHYDYWGQGTQVTVSS”, “low polyreactivity”; that for “QVQLVESGGGLVQAGGSLRLSCAASGSIFQVYSMGWYRQAPGKEREFVAAISFSGGGTYYADSVKGRFTISRDNAKNTVYLQMNSMKPEDTAVYYCAADVSGWEYDYWGQGTQVTVSS”, “low polyreactivity”.
Consider “QVQLVESGGGLVQAGGSLRLSCAASGRTFRYYAMGWYRQEPGKERELVAVITSGASTYYADSVKGRFTISRDNAKNTVYLQMNCLKPEDTAVYYCNARYSWKYDSWGQGTQVTVSS”, for which the “polyreactivity (PSR sort gate)” value was “high polyreactivity”.
“QVQLVESGGGLVQAGGSLRLSCAASGRTFGSNAMGWYRQAPGKERELVAVITTSGGSTYYADSVKGRFTISRDNAKNTVYLQMNSLKPEDTAVYYCNKVGWYHNYYYWGQGTQVTVSS”: the “polyreactivity (PSR sort gate)” value was “high polyreactivity”.
For “HVQLVESGGGLVQAGGSLRLSCAASGRNFIYNAMGWSSPAPGTDRELVAAINRSGVSTHYADSVKGRFTISRDNAKKTVYLQMNSLKPEDTAVEYCARTVYGARSYDYWGQGTQVTVSS”, the “polyreactivity (PSR sort gate)” value is on record as “low polyreactivity”.
With “QVQLVESGGGLVQAGGSLRLSCAASGRTFTVYAMGWYRQAPGKERELVAAIRRRGGSTYYADSVKGRFTISRDNAKNTVYLQMNSLKPEDTAVYYCAADNWYKKQKRPSAYDYWGQGTQVTVSS”, the “polyreactivity (PSR sort gate)” value is “high polyreactivity”.
Turning to “QGQLVESGGGLVQAGGCLRLSCAASGAIFCYAMGWYRQAPGKERDLVAAISFSGVSTYYADSVKGRFTISRENAKNSVYLQMISLIPEDTAVYYCNAYSDGDEDYWGQGTKVTVSS”, the “polyreactivity (PSR sort gate)” value is recorded as “low polyreactivity”.
As for “QVQLVESGGGLVQAGGSLRLSCAASGSTLNVNAMGWYRQAPGKERELVAAITSGGSTYYADSVKGRFTISRDNEKNTVYLQIHSLKPEDTAVYYCNKRRSWRPTYPIGGSGFYYWGQGTQVTVSS”, the “polyreactivity (PSR sort gate)” value is listed as “low polyreactivity”.
Take “QVQLVESGGGLVQAGGSLRLSCAASGFTFTTYAMGWYRQAPGKERELVARISRRSGSTYYADSVKGRFTISRDNAKNTVYLQMNSLKPEDTAVYYCNADVDRSTTIFDYWGQGTQVTVSS”: the “polyreactivity (PSR sort gate)” value is “high polyreactivity”.
“QVQLVESGGGLVQGGGSLRLSCAASGRNFKYNTMGWYRQAPGKERDLVAAISLSSGSGGGTRYADSVKGRFTISRDNAKNSVYLQMNSLKPEDSAVYYCAARHRYTNEYDYWGHGTQVTVSS”: the “polyreactivity (PSR sort gate)” value is “low polyreactivity”.
“QVQLVESGGGLVQAGGSLRLSCAASGIIFARYAMGWYRQAPGKERELVAVISGSGGSTYYADSVKGRFTISRDNAKNTVYLQMNSLKPEDTAVYYCNAEFESGHDLDWYDYWGQGTQVTVSS”: the “polyreactivity (PSR sort gate)” value is “low polyreactivity”.
“QVQLVESGGGLVQAGGSLRLSCAASGGIFGRYAMGWYRQAPGKERELVAAISKRGGSTYYADSVKGRFTISRDNAKNTVYLQMNSLKPEDTAVYYCNAKRSLFGRYGYWGQGTQVTVSS”: the “polyreactivity (PSR sort gate)” value is on record as “high polyreactivity”.
For “QVQLVESGGGLVQAGGSLRLSCAASGRTFSVNDMGWYRQAPWKEREFVAAISFSGGSTYYADSVKGRFTISRDNAKNTVYLLMNSLKPEDSAVYYSAAEAYPSWFYVITGFGIYDYWGQGTQVTGSS”, the “polyreactivity (PSR sort gate)” value is reported as “high polyreactivity”.
“QVQLVESGGGLVQAGGSLRLICAASGSIFITYAMGWSRQAPGKERELVAAIRRGGRTNYADSVKGRFTISRDNAKNTVYLQMNSLKPEDTAVYYCAAEFHTGWPYYPDYAYDYWGQGTQVTVSS”: the “polyreactivity (PSR sort gate)” value is given as “low polyreactivity”.
On to “QVQLVESGGGLVQAGGSLRLSCAASGSIFGYVMGWSRQAPGKERELVAAISSGGSTDYADSVKGRFTISRDNAKNTVYLQMNSLKPEDTAVYYCAADTDNGYTYYYWGQGTQVTVSS”, for which the “polyreactivity (PSR sort gate)” value is recorded as “low polyreactivity”.
For “QVQLVESGGGLVQAGGSLRLSCAPSGFIFAKYTMGWSRHAPGKERELVAAISANGGNTYYADSVKGRFTITRDNAKNTVYLQMNSLNPEDTAVYYCAALYKYSSYFDYWGQGTLVTVSS”, the “polyreactivity (PSR sort gate)” value is recorded as “high polyreactivity”.
The result for “QVQLVESGGGLDQAGGSLRLSCAASALIFSSYAMGWYRQAPGKERELVAAITGSGGRTYYADSVKGRFTISRDNAKNTVYLQMNSLKPEDTAVYYCAAKYPAPRYYTGYDYWGQGTQVTVSS” reads “high polyreactivity”; that for “QVQLVESGGGLVQAGGSLRLSCAASGSIFWTNAMGCYRQAPGKERELVASIHSSDASTDYADSVKGRFTISRDNEKNTVYLQMNSLKPEDTAVYYCNAAGAYPYYSEDYYWGQGSQVTVSS”, “low polyreactivity”.
As to “QVQLVESGGGLVQAGGSLRLSCAASGRIFYSYAMGWYRQAPGKERELVASITSSGGSTYADSVKGRFTISRDNAKNTVYLQMNSLKPEDTAVYYFDYWGQGTQVTVSS”, the “polyreactivity (PSR sort gate)” value was “low polyreactivity”.
Regarding “QVQLVESGGGLVQAGGSLRLSCAASGITLVGNAMGWYRQAPGKERELVADINWSDDSTYYADSVKGRFTISRDNAKNTVYLQMNSLKQEDTAVYYCAADVSWRLYNRSSEYDYWGQGTQVTVSS”, the “polyreactivity (PSR sort gate)” value is reported as “low polyreactivity”.
On to “QVQLVESGGGLVQAGGSLRLSCAASGFIFAGYAMGWYRQAPGKERELVAAISSRGGSTYYADSVKGRFTISRDNAKNTVYLQMNSLKPEDTAVYYCNKYYYGFTPDGYKKMDYWGQGTQVTVSS”, for which the “polyreactivity (PSR sort gate)” value was “low polyreactivity”.

(Values after the nanobody polyreactivity screen of Harvey et al. (2022).)
